Experimental data: publication PMC6882859, “Core architecture of a bacterial type II secretion system” (Nature Communications, 2019)

Legend:
[1] = target: PulD (Klebsiella pneumoniae HS11286) (UniProt P15644); assay: cryo-EM structure; outer membrane complex of the co-expressed and co-purified Pul_CDELMNS complex on thin carbon film; focused refinement, C15 symmetry, 4.3 Å overall; PulC HR domain (7-8 Å) and PulS (~7 Å) as rigid-body fitted homology models; top views from a purification without glutaraldehyde
[2] = target: T1, PulE with C-terminal StrepII tag (Klebsiella pneumoniae HS11286, UniProt A0A0H3GRZ5 1-497); assay: SDS-PAGE densitometry of the co-purified complex; Pul_CDELMNS co-expressed and co-purified without glutaraldehyde, phenol extracted; fluorescent emission of Coomassie R250 and Sypro Ruby stained gels; six independent purifications; ratios standardised around PulE; settings: both partners purified
T1 construct: PulE ATPase of the Klebsiella pneumoniae HS11286 type II secretion system; N1E, N2E and CTE domains; also called PulE ATPase; GspE; source: E. coli C43 (DE3) with pspA knockout, co-expressed (from the pul operon in pASK3c, or full-length pulE alone in pASK3c); DDM-solubilised membranes; purified as part of a complex (StrepTrap, Flag resin); not shown: StrepII, C-terminal, kept
T1 sequence: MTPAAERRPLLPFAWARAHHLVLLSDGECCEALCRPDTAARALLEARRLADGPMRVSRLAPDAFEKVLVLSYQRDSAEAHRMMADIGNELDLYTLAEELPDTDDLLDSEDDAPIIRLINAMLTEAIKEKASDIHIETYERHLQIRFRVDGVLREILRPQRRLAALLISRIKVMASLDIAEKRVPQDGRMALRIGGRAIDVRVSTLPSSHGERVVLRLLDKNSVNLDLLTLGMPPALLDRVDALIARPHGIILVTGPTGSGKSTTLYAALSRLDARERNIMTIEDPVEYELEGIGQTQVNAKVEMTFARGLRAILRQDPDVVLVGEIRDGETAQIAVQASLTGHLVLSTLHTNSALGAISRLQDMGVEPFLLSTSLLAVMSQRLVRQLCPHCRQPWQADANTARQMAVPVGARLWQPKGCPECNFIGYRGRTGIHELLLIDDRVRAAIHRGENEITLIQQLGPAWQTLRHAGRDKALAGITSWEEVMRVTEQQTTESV

[3] = target: T2, PulE N1E domain (aa 1-108) with C-terminal StrepII tag (Klebsiella pneumoniae HS11286, UniProt A0A0H3GRZ5 1-108); assay: SDS-PAGE densitometry of the co-purified complex; Pul_(E-N1E/Lcyto) complex, two independent purifications, duplicate gels, Coomassie Blue R250 imaged at 680 nm; settings: both partners purified
T2 construct: N1E domain of PulE, Klebsiella pneumoniae HS11286, aa 1-108; source: E. coli, co-expressed with Pul_(Lcyto) (pASK3c); not shown: StrepII, C-terminal, kept
T2 sequence: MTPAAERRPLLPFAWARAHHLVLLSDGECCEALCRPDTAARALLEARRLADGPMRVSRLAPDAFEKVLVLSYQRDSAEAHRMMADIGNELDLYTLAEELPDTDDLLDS

Molecule: PulS with C-terminal Flag tag (from UniProt P20440 18-125) (natural protein)
- stoichiometry N [1]: 1

Molecule: PulD (from UniProt P15644 28-660) (natural protein)
- stoichiometry N [1]: 15

B1: PulL (natural protein)
chain: MNKINASPQAMLIVRLAAAQAPLHWQLFAPGEPHHEASGRWPTDDASPFPALAEQYPAWVLIPASDCAFHSLNLPAGLRKPPLQVAPFLLEEQLADDVEATHFALLHRQQAQCEIVAVQRQKMRDWLARCESLSLQPLALTPDVLALPWQPPAWSAVQVDEQWLIRHQPWGGMAAENVWLTELLQSEAEEHVIDSYSPPPAAPGVWREQPAQTLLTLAARHPAAQKLSLLQGEFAVRRRSAQASWRPARYAALALALLAGANSVLDHRDLARQAEAAQQASRAFYHRWFPTEKKVINPRLQMQQHLQTLTRQAQHAPLVDRLSALQNILSETPGIRLRALSWDAAGNRLQLDIAAVTSRALEQFTQRAQPRFRVRPGDMITKPDGIEGQLTLEENDG
notes: PulL of the Klebsiella pneumoniae HS11286 type II secretion system; bitopic inner membrane protein with a cytoplasmic domain (aa 1-235) and a periplasmic domain; a tag may have been present there; also called GspL; source: DDM-solubilised membranes; purified as part of a complex
- stoichiometry N [2]: 0.97 relative to PulE

B2: PulM (natural protein)
chain: MANLLIWWRQRTPSEQRLLLGLTGLLAACAFWYGLWQPWRAREAQWRQTLVKEQASLRWMTEQAPRLQQLSQQPAPAAKEALTALVMREAASHGLTVIRLQPQGKRLQITLQPCAFQALIDWLDAPAMRGVNAISLSVTGQPSRPGWVTVNHLLLERDDEG
notes: PulM of the Klebsiella pneumoniae HS11286 type II secretion system; whole gene as part of the cloned operon; also called GspM; source: DDM-solubilised membranes; purified as part of a complex
- stoichiometry N [2]: 0.99 relative to PulE

B3: PulC (natural protein)
chain: MPVSVMRLTNINKGIIKLLPQIVTLIILITAIPQLAKLTWRVVFPVSPEDISALPLTMPPAADPELKNVRPAFTLFGLAVKNSPTPTDAASLNQVPVSSLKLRLAGLLASSNPARSIAIIEKGNQQVSLSTGDPLPGYDARIAAILPDRIIVNYQGRKEAILLFNDSRAPSPPPTAAGNPPLVKRLREQPQNILTYLSISPVLSGDKLLGYRLNPGKDASLFRQSGLQANDLAIALNGIDLRDQEQAQQALQNLADMTEITLTVEREGQRHDIAFALGDE
notes: whole gene as part of the cloned operon pulC to pulO; has an N-terminus in the inner membrane, an HR domain and a PDZ domain; Only the HR domain (homology model) is fitted in the outer membrane complex map; also called GspC; source: E. coli C43 (DE3) with pspA knockout, co-expressed from the pul operon (pASK3c); DDM-solubilised membranes; purified as part of the complex (StrepTrap, Flag resin)
- stoichiometry N [2]: 2.13 relative to PulE

B4: PulN (natural protein)
chain: MKANWIAGGLLLVLYLLWLTATAPARLLAPMLPPGVQVGQFSGSVWRGAAQPVYWHGERLERLAWSLTLAGWQVSLSDPRGVMGQARLWGLRDLRLQEGRLTAPASLLSRWLMSTMPVKAAGEVTFSLTEGRFSDGRCRHIIAGGAQWRQARLHSPVGSLELAQVNGTFRCTVDGAVALTLRQDSHQLSLSGQGTLSPDGRYLFRGTLQPRQGMPPLLALLVTRPTANNAPGPTPWQLQGKWLPQEQK
notes: PulN of the Klebsiella pneumoniae HS11286 type II secretion system; whole gene as part of the cloned operon pulC to pulO; source: E. coli C43 (DE3) with pspA knockout, co-expressed from the pul operon (pASK3c); DDM-solubilised membranes; purified as part of the complex (StrepTrap, Flag resin)
- stoichiometry N [2]: 0.95 relative to PulE

B5: PulL cytoplasmic domain (aa 1-235) with C-terminal Flag tag (domain or fragment)
chain: MNKINASPQAMLIVRLAAAQAPLHWQLFAPGEPHHEASGRWPTDDASPFPALAEQYPAWVLIPASDCAFHSLNLPAGLRKPPLQVAPFLLEEQLADDVEATHFALLHRQQAQCEIVAVQRQKMRDWLARCESLSLQPLALTPDVLALPWQPPAWSAVQVDEQWLIRHQPWGGMAAENVWLTELLQSEAEEHVIDSYSPPPAAPGVWREQPAQTLLTLAARHPAAQKLSLLQGEFA
notes: cytoplasmic domain of PulL, Klebsiella pneumoniae HS11286, aa 1-235; source: E. coli, co-expressed (pCDF-duet); not shown: Flag, C-terminal, kept
- stoichiometry N [3]: 1
